The target in experiment [1] is T1, soluble human FcRn (shFcRn) (human, UniProt P55899 24-297; P61769 21-119).
T1 construct: For crystallography it was expressed in CHOK1SV cells and deglycosylated with PNGaseF; biotinylated for phage selection; also called hFcRn/β2m; FcRn-biotin
Briefly: SPR (Biacore), immobilized shFcRn, pH 6; data fit column: aggregates/non specific. A general note: In SPR one partner is held on a chip, and binding of the other changes the refractive index at the surface.

In experiment [2] the target is T1, soluble human FcRn (shFcRn). Kind of experiment: SPR (Biacore), immobilized shFcRn, pH 6, fit 'ss'.
Experiment [3] has the same target. Briefly: SPR (Biacore), pH 7.4.
Procedure: SPR analyses: SPR analyses were conducted using a Biacore 3000 or T100 instrument. Research-grade CMS sensor chips and all coupling reagents for immobilization were purchased from Biacore. All proteins were cross-linked to the dextran surface of a CM5 sensor chip by standard amine coupling chemistry as recommended by Biacore. […] Binding experiments were performed at pH 6.0 or 7.4 using 50 mM phosphate, 100 mM sodium chloride and 0.01% surfactant P20. […] Bound albumin protein was then allowed to dissociate from the chip for 5 minutes with running buffer. Any remaining albumin was removed from the chip with a 60 second injection (2 cycles) of pH 8.0 Tris-HCl regeneration buffer (1 M Tris pH 8.0) at 25 μL/min flow rate. The binding responses recorded near the end of the association phase were plotted as a function of concentration. Equilibrium dissociation constants (KD), were derived from sensorgrams using the 1:1 binding model of BlAevaluation software 4.1.
For experiment [4] the target is unchanged. Kind of experiment: SPR (Biacore), pH 6.0; pH 6.0.
The target is the same in experiment [5]. Briefly: SPR (Biacore), immobilized shFcRn, pH 7.4.
Experiment [6] has the same target. Briefly: SPR (Biacore), Kd pH 7.4 divided by Kd pH 6.0.
For experiment [7] the target is unchanged. Kind of experiment: SPR (Biacore), immobilized shFcRn, pH 6, steady-state fit.
Experiment [8] shares this target. Kind of experiment: phage display hit; X-ray crystallography.

Values joined by “and” are separate entries in the source; they are usually repeats but may differ in a detail not shown here. Identical values can stand only once. Bridge positions count the residues as written; N and C are the ends.

T1 sequence (P55899 24-297 limits assumed, chain 1 of 2): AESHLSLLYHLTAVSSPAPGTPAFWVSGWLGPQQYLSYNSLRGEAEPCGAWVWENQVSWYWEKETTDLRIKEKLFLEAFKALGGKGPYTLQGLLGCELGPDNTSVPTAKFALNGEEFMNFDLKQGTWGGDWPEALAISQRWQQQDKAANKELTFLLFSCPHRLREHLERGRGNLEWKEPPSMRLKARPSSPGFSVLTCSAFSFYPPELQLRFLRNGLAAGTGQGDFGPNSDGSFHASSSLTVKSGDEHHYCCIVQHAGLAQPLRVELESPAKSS
T1 sequence (P61769 21-119 limits assumed, chain 2 of 2): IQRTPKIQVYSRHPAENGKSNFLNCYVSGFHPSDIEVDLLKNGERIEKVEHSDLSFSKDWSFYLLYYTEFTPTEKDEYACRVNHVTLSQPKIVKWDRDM

For Ac-VMHAFWDEEFRAEYV-NH2 [SYN1559], the binding result in experiment [1] is recorded as “no binding”.

As usually defined, the Kd is the free concentration of one partner at which half of the binding sites on the other are occupied at equilibrium, for simple one-to-one binding. Lower therefore signals tighter binding. On to Ac-YATCKWDDGFSCEYV-NH2 (disulfide 4-12 (inferred)) [SYN1145], for which the Kd in experiment [2] was found to be 57 µM.

For Ac-AGRYFCTKWKHGWCEEVGTGGGK-NH2 (disulfide 6-14 (inferred)) [SYN571], the Kd in experiment [3] is 13.1 µM; in experiment [4], 0.5 µM; in experiment [5] it was 13.1 µM; in experiment [7] it was 0.45 µM and 0.5 µM. Further, the “Kd Ratio 7.4/6.0” value in experiment [6] amounted to 29.

Regarding Ac-AGVMHCFWDEEFKCDQGGTGGGK-NH2 (disulfide 6-14 (inferred)) [SYN514], the binding result in experiment [8] is “binds”.

The values are drawn from patent US20170209529A1 (BRIGHAM AND WOMEN S HOSPITAL, published 2017).
